The supplement of paper PMC10724198
± gives the standard deviation of the averaged measurements.

Tests used:
Saccharomyces cerevisiae [1] = assay: protein stability index of tFT-peptide fusion (C-terminal peptide) (PSI (0-1 scale)); higher = more stable (slower turnover); details: genetic background: wild type; temperature: 30 C
Saccharomyces cerevisiae [2] = assay: as above
Description: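 MPS profiling in S. cerevisiae of the tFT-X12 degron library: putative degron peptides plus stable controls, 12 aa, fused to the C-terminus of a sfGFP-mCherry timer. Cells are FACS-sorted into 8 mCherry/sfGFP bins and deep-sequenced. PSI runs from 0 (unstable) to 1 (stable). Backgrounds are wild type, das1Δ and doa10Δ at 30 °C, and wild type, das1Δ, cdc34-1 and cdc53-1 at 37 °C; 2-3 technical replicates each.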

[3] = genetic background: cdc34-1, temperature: 37 C
[4] = genetic background: cdc53-1, temperature: 37 C
[5] = genetic background: das1 deletion, temperature: 30 C
[6] = genetic background: das1 deletion, temperature: 37 C
[7] = genetic background: doa10 deletion, temperature: 30 C
[8] = genetic background: wild type, temperature: 30 C
[9] = genetic background: wild type, temperature: 37 C
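Further: PSI is a weighted mean of sequencing reads over stability bins, variants kept only with over 10 reads, mCherry proximal and sfGFP distal, peptide attached via GGGS linker.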

Sequence	protein stability index (Saccharomyces cerevisiae [1])	protein stability index (Saccharomyces cerevisiae [2]; [3])	protein stability index (Saccharomyces cerevisiae [2]; [4])	protein stability index (Saccharomyces cerevisiae [2]; [5])	protein stability index (Saccharomyces cerevisiae [2]; [6])	protein stability index (Saccharomyces cerevisiae [2]; [7])	protein stability index (Saccharomyces cerevisiae [2]; [8])	protein stability index (Saccharomyces cerevisiae [2]; [9])
FLQIIIFSRVLF	0.467 ± 0.024	0.455 ± 0.013	0.543 ± 0.059	0.377 ± 0.017	0.549 ± 0.0081	0.366 ± 0.026	0.364 ± 0.031	0.52 ± 0.011
FLRWRVWVVVGW	0.234 ± 0.0043	0.187 ± 0.023	0.259 ± 0.024	0.199 ± 0.035	0.358 ± 0.027	0.18 ± 0.012	0.181 ± 0.021	0.332 ± 0.039
FLSRLVGFYFVV	0.361 ± 0.021	0.606 ± 0.018	0.69 ± 0.0093	0.587 ± 0.026	0.733 ± 0.022	0.313 ± 0.006	0.312 ± 0.014	0.463 ± 0.014
FLSVPHLLFLFI	0.511 ± 0.017	0.608 ± 0.0063	0.634 ± 0.016	0.494 ± 0.021	0.619 ± 0.0054	0.49 ± 0.016	0.4689 ± 0.0032	0.6023 ± 0.0038
FLTLQSPIQYIV	0.171 ± 0.015	0.584 ± 0.032	0.732 ± 0.013	0.646 ± 0.053	0.7289 ± 0.0016	0.105 ± 0.0049	0.117 ± 0.017	0.124 ± 0.0086
FLTSPSVWRYLF	0.153 ± 0.036	0.623 ± 0.026	0.7196 ± 0.0049	0.693 ± 0.032	0.755 ± 0.0045	0.125 ± 0.046	0.139 ± 0.017	0.227 ± 0.017
FLYIPLYCRLSF	0.256 ± 0.027	0.286 ± 0.034	0.3 ± 0.006	0.302 ± 0.031	0.433 ± 0.019	0.209 ± 0.018	0.147 ± 0.028	0.343 ± 0.011
FPTLHPAIPYLC	0.458 ± 0.042	0.643 ± 0.013	0.672 ± 0.057	0.616 ± 0.017	0.7116 ± 0.0013	0.237 ± 0.01	0.282 ± 0.022	0.468 ± 0.02
FRFGAKISLIVL	0.368 ± 0.064	0.569 ± 0.019	0.565 ± 0.014	0.47 ± 0.018	0.584 ± 0.015	0.189 ± 0.0063	0.225 ± 0.033	0.42 ± 0.034
FRHFPLLLSFVR	0.418 ± 0.062	0.428 ± 0.025	0.4636 ± 0.0011	0.334 ± 0.033	0.512 ± 0.01	0.324 ± 0.015	0.323 ± 0.04	0.5 ± 0.0094
FRILVGCRVVLM	0.426 ± 0.021	0.429 ± 0.0069	0.51 ± 0.077	0.355 ± 0.028	0.5047 ± 0.00065	0.311 ± 0.0097	0.343 ± 0.051	0.483 ± 0.016
FSAVVCPTVFLC	0.185 ± 0.063	0.51 ± 0.051	0.725 ± 0.019	0.603 ± 0.015	0.746 ± 0.019	0.0928 ± 0.02	0.0973 ± 0.022	0.0951 ± 0.0051
FSCWLFMLCVFL	0.393 ± 0.025	0.4339 ± 0.0012	0.459 ± 0.015	0.401 ± 0.013	0.466 ± 0.026	0.37 ± 0.017	0.316 ± 0.023	0.454 ± 0.025
FSIFFFLLPSSL	0.464 ± 0.042	0.539 ± 0.03	0.559 ± 0.0082	0.448 ± 0.017	0.604 ± 0.0097	0.443 ± 0.028	0.441 ± 0.025	0.5593 ± 0.0021
FSLFYYIHLSVA	0.192 ± 0.019	0.191 ± 0.002	0.211 ± 0.02	0.169 ± 0.034	0.2771 ± 0.002	0.0982 ± 0.0035	0.104 ± 0.028	0.197 ± 0.0021
FSLGGVPYVFFV	0.37 ± 0.019	0.628 ± 0.05	0.694 ± 0.012	0.587 ± 0.024	0.716 ± 0.01	0.195 ± 0.022	0.221 ± 0.029	0.4579 ± 0.0017
FSLWSRRSITVY	0.198 ± 0.057	0.04947 ± 0.00046	0.0405 ± 0.018	0.104 ± 0.042	0.113 ± 0.019	0.0595 ± 0.02	0.0899 ± 0.026	0.0886 ± 0.049
FSPSHMLRIFCY	0.294 ± 0.055	0.337 ± 0.089	0.355 ± 0.067	0.286 ± 0.033	0.443 ± 0.0051	0.1793 ± 0.00023	0.212 ± 0.0047	0.282 ± 0.0028
FSRPTYYFIRHS	0.403 ± 0.029	0.629 ± 0.048	0.696 ± 0.03	0.658 ± 0.038	0.69 ± 0.011	0.26 ± 0.021	0.272 ± 0.058	0.475 ± 0.048
FSSRVFLIVGIY	0.427 ± 0.025	0.45 ± 0.015	0.614 ± 0.05	0.33 ± 0.029	0.538 ± 0.021	0.2266 ± 0.0017	0.27 ± 0.023	0.4874 ± 0.0027

Sequence	protein stability index (Saccharomyces cerevisiae [1])	protein stability index (Saccharomyces cerevisiae [2]; [3])	protein stability index (Saccharomyces cerevisiae [2]; [4])	protein stability index (Saccharomyces cerevisiae [2]; [5])	protein stability index (Saccharomyces cerevisiae [2]; [6])	protein stability index (Saccharomyces cerevisiae [2]; [7])	protein stability index (Saccharomyces cerevisiae [2]; [8])	protein stability index (Saccharomyces cerevisiae [2]; [9])
FVCFSFFFPFLL	0.237 ± 0.057	0.401 ± 0.0099	0.441 ± 0.0071	0.37 ± 0.033	0.5099 ± 0.001	0.163 ± 0.01	0.148 ± 0.016	0.238 ± 0.0042
FVFCTCSFFFLW	0.477 ± 0.0076	0.5113 ± 0.0046	0.532 ± 0.011	0.421 ± 0.026	0.54 ± 0.021	0.374 ± 0.004	0.393 ± 0.029	0.5103 ± 0.00052
FVSGRFLFFFVL	0.204 ± 0.04	0.52 ± 0.029	0.675 ± 0.0071	0.489 ± 0.018	0.699 ± 0.014	0.162 ± 0.0036	0.144 ± 0.018	0.208 ± 0.0074
FVSSLLPLLTLL	0.293 ± 0.033	0.555 ± 0.032	0.636 ± 0.013	0.608 ± 0.032	0.694 ± 0.014	0.142 ± 0.0036	0.141 ± 0.012	0.218 ± 0.0057
FVVVGVLFLCVG	0.367 ± 0.025	0.256 ± 0.0023	0.4122 ± 0.00071	0.278 ± 0.023	0.479 ± 0.011	0.258 ± 0.0065	0.277 ± 0.03	0.442 ± 0.007
FWFSFSFLCHSY	0.422 ± 0.016	0.384 ± 0.022	0.4491 ± 0.001	0.358 ± 0.032	0.4386 ± 0.001	0.386 ± 0.02	0.38 ± 0.0095	0.407 ± 0.02
FYFLSFLLLLSP	0.176 ± 0.012	0.143 ± 0.0096	0.132 ± 0.021	0.182 ± 0.024	0.294 ± 0.0094	0.223 ± 0.0038	0.156 ± 0.035	0.245 ± 0.024
FYGVRFLVCVSA	0.1575 ± 0.0005	0.0202 ± 0.0026	0.0332 ± 0.0048	0.111 ± 0.037	0.117 ± 0.015	0.0738 ± 0.018	0.105 ± 0.03	0.096 ± 0.0045
GAWLAVCVVREG	0.479 ± 0.022	0.493 ± 0.04	0.568 ± 0.014	0.398 ± 0.023	0.589 ± 0.0069	0.37 ± 0.007	0.405 ± 0.021	0.5526 ± 0.0021
GCILSLCYAVST	0.389 ± 0.016	0.555 ± 0.051	0.569 ± 0.024	0.332 ± 0.026	0.534 ± 0.014	0.296 ± 0.0074	0.318 ± 0.018	0.523 ± 0.013
GCVTFVLISFCA	0.358 ± 0.016	0.238 ± 0.007	0.306 ± 0.039	0.225 ± 0.03	0.425 ± 0.012	0.186 ± 0.035	0.208 ± 0.027	0.386 ± 0.012
GELVLVMYGIWV	0.351 ± 0.058	0.392 ± 0.013	0.47 ± 0.0055	0.29 ± 0.028	0.502 ± 0.013	0.238 ± 0.0055	0.277 ± 0.033	0.458 ± 0.0063
GFESTCSLLCVF	0.43 ± 0.029	0.33 ± 0.026	0.348 ± 0.015	0.314 ± 0.036	0.433 ± 0.001	0.264 ± 0.021	0.306 ± 0.026	0.407 ± 0.013
GFFFFHGLCFFV	0.43 ± 0.047	0.448 ± 0.017	0.513 ± 0.028	0.382 ± 0.029	0.5453 ± 0.0035	0.358 ± 0.028	0.355 ± 0.023	0.526 ± 0.02
GFFFWTMCFWVV	0.284 ± 0.046	0.255 ± 0.01	0.349 ± 0.022	0.303 ± 0.038	0.456 ± 0.011	0.204 ± 0.0089	0.194 ± 0.02	0.322 ± 0.026
GFLVPSSPRCHQ	0.727 ± 0.0082	0.708 ± 0.018	0.72 ± 0.039	0.6427 ± 0.0046	0.72 ± 0.0086	0.654 ± 0.018	0.681 ± 0.047	0.691 ± 0.012
GFSPLFVLVFGV	0.4261 ± 0.0035	0.47 ± 0.012	0.486 ± 0.024	0.312 ± 0.027	0.518 ± 0.012	0.333 ± 0.016	0.311 ± 0.013	0.489 ± 0.011
GGGSASGWRAAA	0.48 ± 0.025	0.665 ± 0.0097	0.735 ± 0.015	0.633 ± 0.0096	0.716 ± 0.027	0.344 ± 0.0043	0.39 ± 0.022	0.639 ± 0.0072
GGKTLSIFLRIS	0.258 ± 0.0057	0.611 ± 0.029	0.693 ± 0.021	0.554 ± 0.022	0.665 ± 0.0095	0.14 ± 0.013	0.159 ± 0.013	0.295 ± 0.017
